{
  "source": "paper doi:10.1101/2021.11.04.467292",
  "key": {"[1]": {"molecular_target": "KLIF motor domain lacking the N-terminal extension fused to GFP (Trypanosoma brucei)", "assay": "gliding filament motility assay"}, "[2]": {"molecular_target": "microtubules polymerised from bovine tubulin, paclitaxel-stabilised (bovine) (UniProt Q6B856)", "assay": "two-MT assay"}, "[3]": {"molecular_target": "microtubules polymerised from bovine tubulin, paclitaxel-stabilised (bovine) (UniProt Q6B856)", "assay": "TIRF microscopy of Qdot-bound motor on immobilised microtubules"}},
  "data": [
    {"substance": "microtubules polymerised from bovine tubulin, paclitaxel-stabilised (from UniProt Q6B856 1-445) (complex)", "values": [
      {"measurement": "percent of filaments dissociated within 2.5 minutes", "setting": "[1]", "value": "> 50", "unit": "%"}
    ]},
    {"substance": "KLIF motor domain construct (amino acids 1-672) fused to a C-terminal GFP (mClover3) tag (domain or fragment)", "values": [
      {"measurement": "half-life of plus end to plus end tethering of two MTs by KLIF", "setting": "[2]", "value": 1.7, "unit": "min"}
    ]},
    {"substance": "KLIF motor domain construct (amino acids 1-672) fused to a C-terminal biotin tag (domain or fragment)", "values": [
      {"measurement": "half-life of association with MTs", "setting": "[3]", "value": "> 5", "unit": "min"}
    ]}
  ]
}
